According to patent US20200024330A1:

Legend:
Assay in all cases: cell-based or functional assay
[1] = molecular target: HIV-1 92RW021 envelope glycoprotein (Env) on pseudovirus (HIV-1)
[2] = molecular target: HIV-1 92UG005 envelope protein (Env) on pseudovirus (HIV-1)
[3] = molecular target: HIV-1 APV-17 envelope protein (Env) on pseudovirus (HIV-1)
[4] = molecular target: HIV-1 Env of isolate 92UG001 (clade D) (HIV-1)
[5] = molecular target: HIV-1 Env of isolate MGRM-AE-003 (HIV-1)
[6] = molecular target: HIV-1 Env of isolate MGRM-D-003 (clade D) (HIV-1)
[7] = molecular target: HIV-1 Env of isolate MGRM-D-005 (clade D) (HIV-1)
[8] = molecular target: HIV-1 Env of pseudovirus 93TH305, clade B (HIV-1)
[9] = molecular target: HIV-1 Env of pseudovirus MGRM-Chronic-B-008, clade B (HIV-1)
[10] = molecular target: HIV-1 Env of pseudovirus PVO.4 (Acute), clade B (HIV-1)
[11] = molecular target: HIV-1 MGRM-A-005 envelope glycoprotein (Env) (HIV-1)
[12] = molecular target: HIV-1 MGRM-C-006 Env (HIV-1)
[13] = molecular target: HIV-1 MGRM-C-012 Env (HIV-1)
[14] = molecular target: HIV-1 Env of isolate MGRM-D-002 (HIV-1)
[15] = molecular target: HIV-1 Env of isolate MGRM-G-006 (subtype G) (HIV-1)
[16] = molecular target: HIV-1 Env of isolate MGRM-G-027 (subtype G) (HIV-1)
[17] = molecular target: HIV-1 Env of isolate 92UG046 (subtype D) (HIV-1)
[18] = molecular target: HIV-1 Env of isolate MG RM-D-001 (subtype D) (HIV-1)
[19] = molecular target: HIV-1 Env of isolate MG RM-D-004 (subtype D) (HIV-1)
[20] = molecular target: HIV-1 Env of isolate MGRM-C-005 (pseudovirus) (HIV-1 isolate MGRM-C-005, subtype C)
[21] = molecular target: HIV-1 Env of isolate MGRM-C-013 (pseudovirus) (HIV-1 isolate MGRM-C-013, subtype C)
[22] = molecular target: HIV-1 Env of isolate MGRM-C-019 (pseudovirus) (HIV-1 isolate MGRM-C-019, subtype C)
[23] = molecular target: HIV-1 Env of isolate MGRM-C-025 (pseudovirus) (HIV-1 isolate MGRM-C-025, subtype C)
[24] = molecular target: HIV-1 Env of isolate MGRM-F1-006 (subtype F) (HIV-1)
[25] = molecular target: HIV-1 MGRM-Chronic-B-004 Env (pseudovirus) (HIV-1)
[26] = molecular target: HIV-1 MGRM-Chronic-B-018 Env (pseudovirus) (HIV-1)
[27] = molecular target: HIV-1 SF162 Env (pseudovirus) (HIV-1) (UniProt P19550)
[28] = molecular target: HIV-1 JR-CSF Env D185A (HIV-1 (isolate JR-CSF)) (UniProt P20871)
[29] = molecular target: HIV-1 JR-CSF Env D477A (HIV-1 (isolate JR-CSF)) (UniProt P20871)
[30] = molecular target: HIV-1 JR-CSF Env G471A (HIV-1 (isolate JR-CSF)) (UniProt P20871)
[31] = molecular target: HIV-1 JR-CSF Env N156A (HIV-1 (isolate JR-CSF)) (UniProt P20871)
[32] = molecular target: HIV-1 JR-CSF Env R166A (HIV-1 (isolate JR-CSF)) (UniProt P20871)
[33] = molecular target: HIV-1 JR-CSF Env V120A (HIV-1 (isolate JR-CSF)) (UniProt P20871)
[34] = molecular target: HIV-1 JR-CSF Env V182A (HIV-1 (isolate JR-CSF)) (UniProt P20871)
[35] = molecular target: HIV-1 JR-CSF Env Y177A (HIV-1 (isolate JR-CSF)) (UniProt P20871)

1443_C16 (PG16) (TCN-116) (antibody), sequence (VH): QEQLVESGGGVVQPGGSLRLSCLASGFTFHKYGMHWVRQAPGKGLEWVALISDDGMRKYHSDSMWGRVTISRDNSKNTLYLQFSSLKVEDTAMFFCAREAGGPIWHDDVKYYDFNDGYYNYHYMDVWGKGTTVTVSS
1443_C16 (PG16) (TCN-116) (antibody), sequence (VL): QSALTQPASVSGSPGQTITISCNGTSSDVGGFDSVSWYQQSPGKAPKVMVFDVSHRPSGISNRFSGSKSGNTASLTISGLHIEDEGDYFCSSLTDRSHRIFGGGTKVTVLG
PGT-142 (4995_E20) (antibody), sequence (VH): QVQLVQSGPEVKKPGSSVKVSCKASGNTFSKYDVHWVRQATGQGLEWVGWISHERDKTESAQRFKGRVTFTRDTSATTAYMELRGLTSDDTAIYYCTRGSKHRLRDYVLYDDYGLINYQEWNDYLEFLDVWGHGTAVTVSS
PGT-142 (4995_E20) (antibody), sequence (VL): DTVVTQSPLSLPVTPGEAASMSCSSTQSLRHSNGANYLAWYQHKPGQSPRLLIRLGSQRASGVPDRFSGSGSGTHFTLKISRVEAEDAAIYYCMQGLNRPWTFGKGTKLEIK
PGT-141 (4964_G22; 4993_K13) (antibody), sequence (VH): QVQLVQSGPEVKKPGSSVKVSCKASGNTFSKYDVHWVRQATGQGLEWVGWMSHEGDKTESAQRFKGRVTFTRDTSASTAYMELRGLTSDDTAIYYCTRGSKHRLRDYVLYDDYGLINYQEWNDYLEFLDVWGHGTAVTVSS
PGT-144 (4970_K22) (antibody), sequence (VH): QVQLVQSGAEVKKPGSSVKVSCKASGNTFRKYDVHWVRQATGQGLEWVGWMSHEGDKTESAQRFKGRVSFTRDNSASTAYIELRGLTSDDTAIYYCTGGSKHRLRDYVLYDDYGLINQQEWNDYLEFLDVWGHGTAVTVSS
PGT-144 (4970_K22) (antibody), sequence (VL): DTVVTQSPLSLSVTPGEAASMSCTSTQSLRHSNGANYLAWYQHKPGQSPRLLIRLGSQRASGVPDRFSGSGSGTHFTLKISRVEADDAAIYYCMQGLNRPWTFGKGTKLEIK
PGT-143 (4980_N08) (antibody), sequence (VH): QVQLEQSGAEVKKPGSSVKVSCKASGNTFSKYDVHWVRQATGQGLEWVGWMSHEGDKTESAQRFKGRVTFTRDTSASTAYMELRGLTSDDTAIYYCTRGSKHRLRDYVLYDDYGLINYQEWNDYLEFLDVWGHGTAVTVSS
PGT-143 (4980_N08) (antibody), sequence (VL): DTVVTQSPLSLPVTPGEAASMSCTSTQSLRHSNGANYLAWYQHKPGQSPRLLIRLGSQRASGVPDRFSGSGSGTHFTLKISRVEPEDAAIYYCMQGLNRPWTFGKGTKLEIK

| Substance | IC50 (µg/ml), pseudovirus neutralization [1] | neutralization IC50 [2] | neutralization IC50 [3] | IC50 (µg/ml), pseudovirus neutralization [4] | IC50 (µg/ml), pseudovirus neutralization [5] | IC50 (µg/ml), pseudovirus neutralization [6] | IC50 (µg/ml), pseudovirus neutralization [7] | IC50 (µg/ml), pseudovirus neutralization [8] | IC50 (µg/ml), pseudovirus neutralization [9] | IC50 (µg/ml), pseudovirus neutralization [10] | IC50 (µg/ml), pseudovirus neutralization [11] | IC50 [12] | IC50 [13] | neutralization IC50 [15] | neutralization IC50 [16] | further results |
| --- | --- | --- | --- | --- | --- | --- | --- | --- | --- | --- | --- | --- | --- | --- | --- | --- |
| 2F5 (antibody) | 4.16 µg/mL | 11.8 µg/mL | 2 µg/mL | 13 µg/mL | 0.24 µg/mL | > 50 µg/mL | > 50 µg/mL | 7.61 µg/mL | > 50 µg/mL | > 50 µg/mL | 5.7 µg/mL | > 50 µg/mL | > 50 µg/mL |  |  |  |
| 2G12 (antibody) | > 50 µg/mL | > 50 µg/mL | > 50 µg/mL | > 50 µg/mL | > 50 µg/mL | > 50 µg/mL | 25.7 µg/mL | 0.55 µg/mL | 0.55 µg/mL | 0.8 µg/mL | > 50 µg/mL | > 50 µg/mL | > 50 µg/mL |  |  |  |
| 4E10 (antibody) | 4.87 µg/mL | 8.86 µg/mL | 5.1 µg/mL | 13.6 µg/mL | 0.34 µg/mL | 2.49 µg/mL | 35.2 µg/mL | 12.3 µg/mL | 16.7 µg/mL | 18.3 µg/mL | 4.09 µg/mL | 4.94 µg/mL | 0.44 µg/mL |  |  |  |
| 1443_C16 (PG16) (TCN-116) (antibody) | 0.11 µg/mL | > 50 µg/mL | > 50 µg/mL | > 50 µg/mL | 0.03 µg/mL | 0.01 µg/mL | 19.7 µg/mL | 19.3 µg/mL | 0.73 µg/mL | 5.43 µg/mL | 0.09 µg/mL | 2.62 µg/mL | 0.48 µg/mL |  |  |  |
| 1495_C14 (PGC14) (antibody) | > 50 µg/mL | > 50 µg/mL | > 50 µg/mL | > 50 µg/mL | > 50 µg/mL | > 50 µg/mL | > 50 µg/mL | 6 µg/mL | > 50 µg/mL | > 50 µg/mL | > 50 µg/mL | > 50 µg/mL | > 50 µg/mL |  |  |  |
| 1496_C09 (PG9) (TCN-109) (antibody) | 0.05 µg/mL |  | 26.4 µg/mL | 41.8 µg/mL |  |  | 0.59 µg/mL | 2.08 µg/mL | 6.66 µg/mL | 4.01 µg/mL |  | 0.23 µg/mL | 0.24 µg/mL | 1.98 µg/mL | 0.007 µg/mL | IC50 (µg/mL), pseudovirus neutralization [5]: 0.044 µg/mL; IC50 (µg/mL), pseudovirus neutralization [14]: 0.021 µg/mL |
| 4838_L06 (PGT-121) (antibody) |  |  |  |  |  |  |  |  |  |  |  |  |  |  |  | IC50 (µg/mL), pseudovirus neutralization [17]: > 50 µg/mL; IC50 (µg/mL), pseudovirus neutralization [18]: 0.615 µg/mL; IC50 (µg/mL), pseudovirus neutralization [19]: > 50 µg/mL; IC50 (µg/mL) neutralization [20]: 0.015 µg/mL; IC50 (µg/mL) neutralization [21]: 7.23 µg/mL; IC50 (µg/mL) neutralization [22]: > 50 µg/mL; IC50 (µg/mL) neutralization [23]: 46.8 µg/mL; IC50 (µg/mL), pseudovirus neutralization [24]: 5.33 µg/mL; IC50, pseudovirus neutralization [25]: 0.009 µg/mL; IC50, pseudovirus neutralization [26]: > 50 µg/mL; IC50, pseudovirus neutralization [27]: 0.005 µg/mL |
| 4858_P08 (PGT-123) (antibody) |  |  |  |  |  |  |  |  |  |  |  |  |  |  |  | IC50 (µg/mL), pseudovirus neutralization [17]: > 50 µg/mL; IC50 (µg/mL), pseudovirus neutralization [18]: 0.147 µg/mL; IC50 (µg/mL), pseudovirus neutralization [19]: > 50 µg/mL; IC50 (µg/mL) neutralization [20]: 0.012 µg/mL; IC50 (µg/mL) neutralization [21]: 14.9 µg/mL; IC50 (µg/mL) neutralization [22]: > 50 µg/mL; IC50 (µg/mL) neutralization [23]: 13.3 µg/mL; IC50 (µg/mL), pseudovirus neutralization [24]: 6.89 µg/mL; Fold IC50 increase relative to wild-type [28]: 1.9 fold; Fold IC50 increase relative to wild-type [29]: 2.3 fold; Fold IC50 increase relative to wild-type [30]: 1.3 fold; Fold IC50 increase relative to wild-type [31]: 6.2 fold; Fold IC50 increase relative to wild-type [32]: 0.9 fold; Fold IC50 increase relative to wild-type [33]: 1.1 fold; Fold IC50 increase relative to wild-type [34]: 2.8 fold; Fold IC50 increase relative to wild-type [35]: 2.4 fold; IC50, pseudovirus neutralization [25]: 0.008 µg/mL; IC50, pseudovirus neutralization [26]: > 50 µg/mL; IC50, pseudovirus neutralization [27]: 0.005 µg/mL |
| 4877_D15 (PGT-122) (antibody) |  |  |  |  |  |  |  |  |  |  |  |  |  |  |  | IC50 (µg/mL), pseudovirus neutralization [17]: > 50 µg/mL; IC50 (µg/mL), pseudovirus neutralization [18]: 1.13 µg/mL; IC50 (µg/mL), pseudovirus neutralization [19]: > 50 µg/mL; IC50 (µg/mL) neutralization [20]: 0.027 µg/mL; IC50 (µg/mL) neutralization [21]: 32.6 µg/mL; IC50 (µg/mL) neutralization [22]: > 50 µg/mL; IC50 (µg/mL) neutralization [23]: 8.69 µg/mL; IC50 (µg/mL), pseudovirus neutralization [24]: 3.27 µg/mL; IC50, pseudovirus neutralization [25]: 0.008 µg/mL; IC50, pseudovirus neutralization [26]: > 50 µg/mL; IC50, pseudovirus neutralization [27]: 0.009 µg/mL |
| 5123_A06 (PGT-125) (antibody) |  |  |  |  |  |  |  |  |  |  |  |  |  |  |  | IC50 (µg/mL), pseudovirus neutralization [17]: > 50 µg/mL; IC50 (µg/mL), pseudovirus neutralization [18]: 2.84 µg/mL; IC50 (µg/mL), pseudovirus neutralization [19]: 0.371 µg/mL; IC50 (µg/mL) neutralization [20]: 2.09 µg/mL; IC50 (µg/mL) neutralization [21]: > 50 µg/mL; IC50 (µg/mL) neutralization [22]: 0.13 µg/mL; IC50 (µg/mL) neutralization [23]: 42.5 µg/mL; IC50 (µg/mL), pseudovirus neutralization [24]: 0.035 µg/mL; Fold IC50 increase relative to wild-type [28]: 0.6 fold; Fold IC50 increase relative to wild-type [29]: 3.4 fold; Fold IC50 increase relative to wild-type [30]: 1 fold; Fold IC50 increase relative to wild-type [31]: 3.6 fold; Fold IC50 increase relative to wild-type [32]: 1.5 fold; Fold IC50 increase relative to wild-type [33]: 0.5 fold; Fold IC50 increase relative to wild-type [34]: 1.3 fold; Fold IC50 increase relative to wild-type [35]: 1.1 fold; IC50, pseudovirus neutralization [25]: 0.007 µg/mL; IC50, pseudovirus neutralization [26]: > 50 µg/mL; IC50, pseudovirus neutralization [27]: 0.004 µg/mL |
| PGT-121 (antibody) |  |  |  |  |  |  |  |  |  |  |  |  |  |  |  | IC50 (µg/mL), pseudovirus neutralization [5]: > 50 µg/mL |
| PGT-122 (antibody) |  |  |  |  |  |  |  |  |  |  |  |  |  |  |  | IC50 (µg/mL), pseudovirus neutralization [5]: > 50 µg/mL |
| PGT-141 (4964_G22; 4993_K13) (antibody) |  |  |  |  |  |  |  |  |  |  |  |  |  | 0.043 µg/mL | > 50 µg/mL |  |
| PGT-142 (4995_E20) (antibody) |  |  |  |  |  |  |  |  |  |  |  |  |  | 0.019 µg/mL | > 50 µg/mL |  |
| PGT-143 (4980_N08) (antibody) |  |  |  |  |  |  |  |  |  |  |  |  |  | 0.031 µg/mL | > 50 µg/mL |  |
| PGT-144 (4970_K22) (antibody) |  |  |  |  |  |  |  |  |  |  |  |  |  | 3.84 µg/mL | > 50 µg/mL |  |
| PGV04 (antibody) |  |  |  |  |  |  |  |  |  |  |  |  |  | 0.083 µg/mL | 0.125 µg/mL | IC50 (µg/mL), pseudovirus neutralization [5]: 6.4 µg/mL; IC50 (µg/mL), pseudovirus neutralization [14]: 0.322 µg/mL |
| VRC01 (antibody) |  |  |  |  |  |  |  |  |  |  |  |  |  | 0.055 µg/mL | 0.36 µg/mL |  |
| b12 (antibody) | > 50 µg/mL | > 50 µg/mL | > 25 µg/mL | 1.01 µg/mL | > 50 µg/mL | > 50 µg/mL | > 50 µg/mL | 4.17 µg/mL | 2.82 µg/mL | > 50 µg/mL | 3.64 µg/mL | > 50 µg/mL | > 50 µg/mL |  |  |  |
